B1: Protein piccolo, residues 1058 to 1114; numbered along this chain, Q9Y6V0 (parent)
chain: TCPLCKTELNIGSKDPPNFNTCTECKNQVCNLCGFNPTPHLTEIQEWLCLNCQTQRA

Variants of: B1
Assay: abundance fitness (aPCA) (normalised: wild type 0, dead -1); higher = more abundant; growth selection in yeast, the domain comes from the species named
Conditions: Homo sapiens

Abundance fitness, by site and new letter:
H40: F -0.105 | W -0.206 | C 0.046 | Q -0.065
F35: H 0.275 | M 0.291 | S 0.236 | W -0.288 | E 0.275 | T 0.298
C49: A -0.66 | V -0.849 | P -0.418 | Y -0.958 | Q -0.927 | H -0.761 | E -1.01
K26: M 0.335 | C -0.026 | W -0.022 | E 0.045 | D 0.071 | V 0.065
L4: A 0.087 | P -0.693 | K -0.569 | C -0.043 | T -0.051 | S 0.006 | N 0.036 | Q 0.028
G12: N -0.611 | C 0.077 | E 0.092 | R -0.05 | A -0.361 | I 0.154
K14: R 0.042 | T 0.013 | W -0.525
G34: E -0.292 | D -0.075 | M -0.643 | Q -0.072 | N -0.925 | Y -0.15
P16: C -0.045 | V -0.483 | T -0.37 | M -0.09 | A -0.37 | Q -0.094 | L -0.095
L32: D -0.032 | S 0.128 | V 0.104 | M -0.131 | I -0.097 | W 0.015 | H 0.073
Q45: F -0.127 | S -0.037 | R -0.003 | M -0.015
D15: W -0.328 | R -0.257 | P -0.273 | C -0.152 | K -0.014 | T -0.013 | N 0.02 | L 0.015 | S -0.051
C30: Y -1.03 | P -0.807 | S -0.429 | E -0.532
T21: H 0.013 | L -0.098 | M 0.298 | V 0.091
N18: S -0.128 | T -0.089
E46: K -0.079 | L -0.124 | C -0.292 | D -0.415 | W -0.401 | R -0.085 | Y -0.349
T42: N 0.097 | Q 0.062 | D -0.015 | V 0.073
C5: Y -0.947 | Q -0.689 | G -0.685 | F -1.11 | H -0.142 | P -1.01 | S -0.68 | W -0.96 | I -1.06
T54: A 0.049 | E 0.231 | K 0.196 | G 0.046 | I -0.37
N20: E -0.012 | A -0.001 | W -0.188 | V 0.07 | M 0.188 | Y -0.337 | G 0.055 | S -0.082 | L -0.024
I11: L -0.22 | Q 0.065 | F -0.063 | V -0.046 | K -0.104 | A -0.153 | H 0.054 | R -0.112 | E 0.172 | W -0.333
T7: Y -0.34 | M -0.301 | E 0.094 | H -0.168 | A -0.063 | Q 0.019
L41: M -0.189 | Y 0.081 | T 0.109 | Q 0.007 | N 0.128 | H -0.247
N31: R 0.012 | T -0.173 | F 0.117 | H 0.118 | I -0.121 | S 0.056 | K 0.12
K6: C -0.329 | W -0.795 | N 0.071 | Y -0.18
N10: W -0.676 | M 0.042 | S -0.08 | R -0.274 | V -0.211 | F -0.103
W47: P -0.039 | L 0.056 | K -0.111 | F -0.065 | D 0.006 | Q -0.09 | C -0.134
C2: K -0.831 | E -0.557 | Y -1.15 | W -0.904
P37: E 0.138 | C 0.05 | R 0.032
F19: N 0.04 | C -0.347 | P -0.385 | M 0.181 | R -0.263 | S -0.277
C22: G -0.69 | S -0.611 | M -0.74 | Q -0.791 | L -0.675 | E -0.54 | R -0.484
P3: S -0.078 | W -0.984 | D 0.095 | A -0.245 | T -0.016 | Y -0.142 | V -0.294
P39: G -0.211 | A 0.018 | Q 0.099 | T -0.005 | C -0.115
C25: Y -0.651 | N -0.66 | S -0.671 | H -0.529
L50: A 0.129 | R 0.182 | H 0.145 | I -0.173 | T 0.208 | M -0.565 | S 0.141 | K 0.078 | E 0.157 | Q 0.15
Q53: Y -0.23 | M -0.36 | K 0.115 | E -0.074 | N 0.118 | S 0.028 | A -0.249
I44: M -0.214 | W -0.312 | C 0.026 | H -0.166 | A -0.022
T1: W -0.516 | V -0.202 | S -0.129 | A -0.534
L9: T -0.081 | E -0.11 | G -0.047 | F 0.007 | M 0.145 | Y -0.181 | R -0.156
L48: E -0.131 | M -0.312 | S -0.063 | Q -0.274
C52: M -0.981 | F -1.06 | D -0.755 | H -0.273 | P -1.2 | Y -0.841 | N -0.876 | A -0.85 | Q -0.841 | K -0.801
V29: Y -0.082 | E -0.178 | C 0.028 | A -0.064 | K -0.326 | R -0.148 | H -0.1
E8: Q -0.178 | R -0.206 | N -0.488 | G -0.052 | H -0.479 | A -0.244 | P -0.09 | D -0.14
C33: E -0.349 | N -0.641 | D -0.336 | V -0.743 | M -0.812 | Q -0.623 | I -0.933
Q28: H -0.206 | S 0.007 | E -0.164 | L -0.078 | P -0.099 | C 0.018 | G 0.038
N36: M 0.033 | V 0.068 | F 0.044 | K 0.08 | A -0.097 | W -0.08
N27: G 0.138 | W 0.174 | T -0.082 | I 0.004 | M -0.088 | F -0.424 | K -0.03
E24: C -0.706 | M -0.06 | W -0.198 | G -0.012 | R -0.01 | N -0.184 | H -0.058 | S -0.13
S13: K 0.209 | C -0.384 | V -0.456 | A -0.37 | Q 0.135 | M 0.012 | Y -0.227 | G -0.525 | T -0.048 | L -0.23
E43: V -0.202 | S -0.2 | F -0.289 | I -0.301 | M -0.191
P17: D -0.122 | I -0.448 | A -0.176 | W -0.199 | Q -0.114 | Y -0.53 | T -0.464 | N -0.189 | G -0.097
N51: D -0.166 | G -0.091 | V -0.326 | S -0.247 | E -0.099
T23: L -0.163 | I -0.187 | Y 0.024 | D 0.041 | R -0.016 | Q -0.36 | N -0.342 | A 0.097 | P -0.126

Source: the Human Domainome abundance scans (Beltran et al. 2025)
